Experimental data: patent US10406197B2, “Substances and methods for the use in prevention and/or treatment in Huntington's disease” (AFFIRIS AG, priority 2014, dated 2019)

What was measured:
[1] = molecular target: T1, recombinant Huntingtin fragment with free aspartic acid 586 at the C-terminus (HTT586) (Homo sapiens, UniProt P42858); assay: Protein ELISA with recombinant Huntingtin HTT586 versus HTT610; type: binding; details: protein capture ELISA, normalized to mAB 2166
T1 construct: recombinant Huntingtin fragment with free aspartic acid 586 at the C-terminus
Experimental: (§1) Binding of antibodies to N-terminal fragment HTT610 was determined by a standard protein capture ELISA procedure using Maxisorb™ ELISA plates (Thermo; CatNr. 439454), coated with 50 μl of a 1:5000 rabbit anti V5 mAB (Sigma, CatNr. V8137), blocking with blocking buffer (PBS, 1% BSA, 0.1% Tween 20), capturing of recombinant Huntingtin from HEK cell extracts (100 ng/μl total protein) followed by incubation with several dilutions of mouse anti HTT sera (1:100; 1:300 and 1:900) or with mAB2166 as reference (diluted 1:2000; Millipore, Cat Nr. MAB2166) for 1 hour at RT. ELISA incubations, washing and detection procedures were performed according to standard procedures.
FIG. 12: mAB M1D1 specifically recognizes recombinant Huntingtin fragment with free aspartic acid 586 at the C-terminus stronger than uncleaned recHTT610. Protein ELISA (performed as in Example 1) using recombinant Huntingtin with 610 and 586 amino acids length (HTT610 and HTT586, respectively). Values indicate the ratio of the mAB M1D1 signal (OD; protein capture ELISA as explained in Example 1) to the mAB 2166 control antibody signal. Values were normalized to reference mAB 2166 recognizing an internal epitope present in both fragments as protein loading control.

[2] = tested on: Huntingtin-derived peptides (p6773, p7564, p6776 and caspase region 586 peptides); assay: Peptide ELISA of hybridoma supernatants and monoclonal antibodies; type: binding, human
Experimental: Vaccine-induced immune responses in mice were determined by ELISA using heparin as anticoagulant. ELISA plates (Nunc Maxisorb) were coated with maleimide activated BSA as carrier to which Cystein containing peptides were coupled via stable thioether bonds. For titrations, plasma dilutions were added and peptide-specific antibodies were quantified by biotinylated anti-mouse IgG (Southern Biotech, CatNr. 1034-08) as detection antibody combined with Streptavidin-POD (Roche, CatNr. 1089153) and subsequent color reaction using ABTS. EC50 values were determined using curve fitting with a 4-parameter logistic using GraphPad Prism (GraphPad Software).
For the production and isolation of monoclonal antibodies, the ClonaCell-HY Hybridoma Cloning Kit (STEMCELL technologies, CatNr. 28411) was used according to the instructions of the manufacturer. In brief, hybridoma fusions were performed with myeloma cell line SP2-0 under HAT selection and supernatants were initially screened by peptide ELISA using the immunization peptide, respectively, and an irrelevant control peptide for background determination. […] Selected colonies were picked and analyzed by DNA sequencing on an ABI3130xl Genetic Analyzer.

[3] = molecular target: T2, recombinant 610 amino acids N-terminal Huntingtin fragment (recHTT610) (Homo sapiens, UniProt P42858, DUP37-38); assay: Protein capture ELISA against recHTT610; type: binding; details: recHTT610 capture ELISA of preselected mAB candidates
T2 construct: the N-terminal 610 aminoacids of human Huntingtin protein extended by two C-terminal V5 tags; made in house; host or cells: HEK293 freestyle cells, transient transfection with precHTT610; NP-40 lysate captured on an anti-V5 coated plate
Experimental: A DNA covering the coding region of the N-terminal 610 aminoacids of human Huntingtin protein extended by two C-terminal V5 tags were synthesized and cloned via XbaI and BamHI restriction sites into eukaryotic expression vector pCDH-EF1-MCS IRES Puro (SBI; CatNr. CD532A1) yielding plasmid precHTT610. Cloning procedures were performed according to standard molecular biology procedures essentially as indicated by manufacturers including restriction digestions and ligation reactions (NEB Quick ligase kit; CatNr. M2200L), bacterial transformation followed by clone selection and analysis. […] Protein concentrations were determined using Qubit (Invitrogen; CatNr.Q32866) according to the manufacturer's instructions.
as §1, with “ELISA incubations, washing and detection procedures were performed according to standard procedures.” left out

[4] = tested on: bone marrow derived primary mouse macrophages; assay: In vitro phagocytosis assay; type: cell-based; details: 5 ng/μl antibodies; p9305 beads for PRR13, p9304 beads for C6-17; versus isotype control mouse IgG2a
Experimental: Isolation and in vitro differentiation of macrophages was essentially performed as described e.g. in Zhang et al. 2008 [PMID: 19016445]. In brief, tibia- and femur-derived bone marrow cells from 8 to 12 weeks old BALB/c mice were divided onto 2-3 10 cm-cell culture dishes at a density of 20-30×10^6 cells per dish, differentiated 4 days in RPMI/10% FCS+P/S in the presence of 20 ng/ml M-CSF (RD-Systems, Cat-No: 416-ML-010), redistributed at day 5 into 24-well tissue culture plates at a density of 150.000 cells/well until day 9. 24 hrs before phagocytosis, cells were starved in 500 μl RPMI-media+10% FCS+P/S in absence of M-CSF. […] Antibody-coated fluorescent peptide-beads were subsequently added to differentiated macrophages for 1 hr at 37° C. (in a volume of 200 ul containing 0.5 ug beads/well) allowing for in vitro uptake by phagocytosis. After washing and scraping the cells in ice cold PBS, cells were washed in FACS-Buffer (1×PBS+1% BSA) and analysed for fluorescence signal by standard FACS procedure.

[5] = tested on: caspase 6 cleavage of target peptide spanning caspase region 586 of Huntingtin; assay: In vitro caspase 6 cleavage inhibition assay; type: biochemical, human; details: affinity purified polyclonal antibodies 3 ng/μl, mAB C6-17 10 ng/μl; no protection = 100%
Experimental: Caspase 6 inhibition assays were performed using Maxisorb ELISA plates (Thermo; 439454) whereby 50 μl of 20 nM BSA-coupled peptide (as indicated in FIG. 18) was coated for 1 hour at RT followed by a one hour treatment with 150 μl blocking buffer (PBS, 1% BSA, 0.1% Tween 20), incubation for 1 hour at RT with affinity purified polyclonal sera (3 ng/μl) or affinity purified mABs (10 ng/μl) as indicated, respectively. After several washes with washing buffer (PBS, 0.1% BSA, 0.1% Tween 20), 5 U Caspase 6 enzyme (Enzo; BML SE170-5000) diluted in 1× Caspase 6 Buffer (BioVision; 1068-80) was added to each well and incubated for 30 min at 37° C. Quantification of the newly exposed epitope generated by caspase 6 peptide cleavage that reflected the extent of caspase accessibility was performed by ELISA as described in Example 1 using peptide p7564-induced antibodies for detection of the free C-terminal aspartic acid-containing epitope.

T2 sequence (P42858 with tags, fused parts or gaps DUP37-38): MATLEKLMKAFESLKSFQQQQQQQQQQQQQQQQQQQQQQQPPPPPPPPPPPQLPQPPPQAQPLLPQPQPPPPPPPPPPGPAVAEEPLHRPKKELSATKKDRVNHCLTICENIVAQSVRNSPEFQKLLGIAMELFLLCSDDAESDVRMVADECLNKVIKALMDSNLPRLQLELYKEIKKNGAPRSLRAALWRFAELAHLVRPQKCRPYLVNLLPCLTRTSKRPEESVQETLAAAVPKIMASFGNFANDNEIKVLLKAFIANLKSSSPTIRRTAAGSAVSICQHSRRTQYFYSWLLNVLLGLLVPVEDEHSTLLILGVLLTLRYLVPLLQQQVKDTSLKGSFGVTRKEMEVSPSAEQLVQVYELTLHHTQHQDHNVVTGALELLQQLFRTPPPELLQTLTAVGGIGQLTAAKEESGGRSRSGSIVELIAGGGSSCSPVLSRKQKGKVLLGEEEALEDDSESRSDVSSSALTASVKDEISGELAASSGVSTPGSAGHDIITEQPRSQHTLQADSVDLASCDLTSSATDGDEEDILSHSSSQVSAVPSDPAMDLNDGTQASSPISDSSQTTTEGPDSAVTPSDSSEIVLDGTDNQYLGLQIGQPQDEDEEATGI
T1 sequence (P42858 1-584): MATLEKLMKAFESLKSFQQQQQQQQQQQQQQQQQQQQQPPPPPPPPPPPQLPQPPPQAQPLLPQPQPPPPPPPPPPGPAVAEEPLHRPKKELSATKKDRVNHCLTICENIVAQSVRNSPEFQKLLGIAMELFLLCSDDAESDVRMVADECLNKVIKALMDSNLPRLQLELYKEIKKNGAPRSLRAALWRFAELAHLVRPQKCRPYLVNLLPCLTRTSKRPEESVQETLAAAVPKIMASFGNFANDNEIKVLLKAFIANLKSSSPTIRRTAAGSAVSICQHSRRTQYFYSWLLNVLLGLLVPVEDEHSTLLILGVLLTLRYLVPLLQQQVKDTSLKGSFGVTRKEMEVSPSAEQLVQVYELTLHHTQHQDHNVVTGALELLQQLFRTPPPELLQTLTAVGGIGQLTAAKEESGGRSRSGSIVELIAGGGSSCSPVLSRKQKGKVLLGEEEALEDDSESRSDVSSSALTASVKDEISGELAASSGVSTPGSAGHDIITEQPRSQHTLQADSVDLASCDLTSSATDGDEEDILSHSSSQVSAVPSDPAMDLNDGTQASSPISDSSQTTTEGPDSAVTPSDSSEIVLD

Molecule	recognition of HTT586 versus recHTT610 (ratio of mAB signal to mAB 2166 control signal) [1]	recognition of caspase region 586 peptides (OD) ([2]; mAB concentration 1 ng/μl, peptides p7564, p7562, p7552, p7541, p7567, p7568, p7605, p6777)	p7564 to p6776 OD signal ratio ([2]; specificity against cleaved peptide p7564, preselected mABs)	signal to noise ratio (recHTT610-specific signal : HEK ctrl extracts) [3]	phagocytosis of peptide-coated beads (FACS) [4]	% cleavage of target peptide [5]
M1D1: monoclonal antibody, mouse IgM, generated using peptide p7564 as immunogen; VH/VL SEQ ID No. 64/65 (antibody, antibody sequence) VH: MDFGLSWVFFVVFYQGVHCEVQLVESGGGLVQPKGSLKLSCAASGFTFNTYAMNWVRQAPGKGLEWVARIRSKSNNYATYYADSVKDRFTISRDDSQSMLYLQMNNLKTEDTAMYYCVRHGEYGNPWFAYWGQGTLVTVSAESQSFPNVFPL light: MKLPVRLLVLMFWIPASSSDVVMTQTPLSLPVSLGDQASISCRSSQSLVHSNGNTYLHWYLQKPGQSPKLLIYKVSNRFSGVPDRFSGSGSGTDFTLKISRVEAEDLGVYFCSQSTHVPYTFGGGTKLEIKRADAAPTVSIFPPSSEQLTSGGASVVCFLNNFYPK	stronger	recognizes Huntingtin peptides from the caspase 6 cleavage region of at least 7AA length containing free C-terminal Aspartic Acid	most favorable	–	–	–
C6-17: monoclonal antibody, mouse IgG2a, generated by hybridoma technique using peptide p7543 as immunogen; VH/VL SEQ ID No. 60/61 (antibody, antibody sequence) VH: MGWSCIMLFLLSGTAGVLSEVQLQQSGPELVKPGASVKISCKTSGYTFTEYTMHWVKQSHGKSLEWIGGINPNNGGTRYNQKFKGKATLTVDRSSSTAYMELRSLTSEDSAVYYCASLDGRDYWGQGTTLTVSSAKTTAPSVFPLA light: MVLMLLLLWVSGTCGDIVMSQSPSSLAVSAGEKVTMSCKSSQSLLNSRTRKNYLAWYQQKPGQSPKLLIYWASTRESGVPDRFTGSGSGTDFTLTISSVQAEDLAVYSCKQSYNLLTFGAGTKLELKRADAAPTVSIFPPSSEQLTSGGASVVCFLNNFYPK	–	–	–	best signal to noise ratio	increased phagocytosis of beads	reduce cleavage
PRR13: monoclonal antibody, mouse IgG2a, generated by hybridoma technique using peptide p6773 as immunogen; VH/VL SEQ ID No. 62/63 (antibody, antibody sequence) VH: MGWSWVMLFLLSGTGGVLSEVQLQQSAPELVKPGASVKMSCKASGYSFTDFYMKWVKQSHGKGLEWIGDIDPKNGDTFYNQKFKGRATLTVDKSSSTAYMQLNSLTTEDSAVYYCATYYGYTMDYWGQGTSVTVSSAKTTAPSVYPLAPVCGDTTGSSVTLGCLVKGYF light: MDFQVQIFSFLLISASVIMSRGQIVLTQSPAIMSASLGERVTMTCTASSSVTSSYLHWYQQKPGSSPKLWIYSTSNLASGVPARFSGSGSGTSYSLTISSMEAEDAATYYCHQYRRPPRTFGGGTKLEIKRADAAPTVSIFPPSSEQLTSGGASVVCFLNNFYPR	–	–	–	–	increased phagocytosis of beads	–
